Data published in article PMC9033776 (2022).
Where no end group is shown, it is not given here.

Columns and labels:
Experiment in all cases: ITC
[1] = target: Bromo1-linker(GGS)5-Bromo2 of BRD4 (UniProt O60885 54-168; O60885 351-457)
[2] = target: BRD2_(bromo1) (amino acids 73–194) (UniProt P25440 73-194)
[3] = target: BRD2_(bromo2) domain (amino acids 455–347) (UniProt P25440 347-455)
[4] = target: BRD3_(bromo2) domain (amino acids 306–416) (UniProt Q15059 306-416)
[5] = target: BRD3_(bromo1) (amino acids 24–144) (UniProt Q15059 24-144)
Sequence of BRD3_(bromo1) (amino acids 24–144) (Q15059 24-144): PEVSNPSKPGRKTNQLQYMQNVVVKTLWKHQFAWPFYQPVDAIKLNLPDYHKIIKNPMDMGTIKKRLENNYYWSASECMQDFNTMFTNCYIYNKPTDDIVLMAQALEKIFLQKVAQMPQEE

Sequence of BRD2_(bromo2) domain (amino acids 455–347) (P25440 347-455): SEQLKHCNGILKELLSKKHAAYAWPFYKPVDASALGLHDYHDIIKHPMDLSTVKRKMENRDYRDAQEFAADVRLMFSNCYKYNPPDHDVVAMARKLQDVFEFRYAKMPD
Sequence of BRD3_(bromo2) domain (amino acids 306–416) (Q15059 306-416): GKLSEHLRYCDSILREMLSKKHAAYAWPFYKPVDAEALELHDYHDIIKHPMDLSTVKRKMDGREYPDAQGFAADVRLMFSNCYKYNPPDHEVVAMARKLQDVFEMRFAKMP
Sequence of BRD2_(bromo1) (amino acids 73–194) (P25440 73-194): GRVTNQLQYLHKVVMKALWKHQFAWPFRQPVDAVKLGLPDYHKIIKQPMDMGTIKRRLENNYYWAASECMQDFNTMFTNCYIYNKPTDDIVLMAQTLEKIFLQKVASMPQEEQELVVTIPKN

Kd [1] [µM]	Kd [2] [mM]	Kd [3] [mM]	Kd [4] [mM]	Kd [5] [mM]	Binder
350					AGGK(Ac)AGK(Ac)DSGK(Ac)AKTKC (also: cross-linked via C-terminal cysteine) [H2A.ZK4ac7ac11ac peptides cross-linked by a C-terminal cysteine]
	2.6	2	1.8	1.5	AGGK(Ac)AGK(Ac)DSGK(Ac)AKTK [tri-acetylated H2A.Z (1–15) K4acK7acK11ac peptide]
